The text below walks through data of US9526713B2, “Use of dencichine in preparation of drug for treating thrombocytopenia” (KUNMING SHENGHUO PHARMACEUTICAL (GROUP) CO., LTD., priority 2013, dated 2016).

Read-outs that look alike come from different tables or passages of the source.

In data set [1] the test system is ITP model mice. Format: in vivo, BALB/C mice. The conditions noted are these: 5 mg/(kg·d) intragastric, 14 days; end of experiment. The text has this:
(§1) Health BALB/C mice (body weight 18˜22 g) are randomly divided into six groups with 12 mice for each group:
Blank group, Model group, Prednisone Acetate Group, Dencichine (high dose, middle dose, and low dose) groups.
Modeling method: blood was taken from orbital vein of BALB/C Mice, followed by EDTA-Na2 Anticoagulation, and then platelets are separated and washed. The prepared platelet suspension solution was mixed uniformly with equal amount of complete Freund's adjuvant and incomplete Freund's adjuvant respectively. In the first week, antigen containing complete Freund's adjuvant is subcutaneously injected into hind paw, back and groin of the guinea pig. Injections are done for 4 times in total, with 5 spots for each injection and 100 μl for each spot. In the 6th week, non-anticoagulated whole blood was taken from the guinea pigs, and was centrifuged for 10 min under 3000 r/min to produce a supernate, which is the anti-mouse platelet serum (GP-APS) of the guinea pigs. The supernate was placed in a water bath (56° C.) for 30 min for complement inactivation, and then the inactivated supernate was diluted with normal saline, followed by test of antibody titers by agar diffusion method, and finally was stored in a refrigerator at −20° C. for later use.
(§2) Except the normal group, the mice of the remain five groups are injected with anti-mouse platelet serum (APS) of the guinea pig with a dose of 100 μl/20 g body weight, via intraperitoneal injection, on the 1st, 3rd, 5th, 7th, 9th, 11th and 13th day of the experiment.
(§3) The mice of each group are given intragastric administration from the first day. […] The mice of the prednisone acetate group are given intragastric administration of suspension of prednisone acetate at 5 mg/(kg·d). The mice of other groups are given intragastric administration of same volumetric of normal saline at 0.2 ml/20 g body weight. Intragastric administration for once each day, and continuous administration for 14 days.
Observation of the Subcutaneous Purpura:
Class I, minor bleeding are found at injection sites, and hemorrhagic spots are interspersed at other sites;
Class II, overt bleeding are found at injection sites, and ecchymosis and petechiae are found at other sites;

For data set [2], the system named is ITP model mice. Format: in vivo, BALB/C mice. The conditions noted are these: 5 mg/kg intragastric. How it is done: as §1, §2
The mice of each group are given intragastric administration from the first day. The mice of the dencichine high dose, middle-dose and low dose groups are given intragastric administration at […] respectively. The mice of the prednisone acetate group are given intragastric administration of suspension of prednisone acetate at 5 mg/(kg·d). The mice of other groups are given intragastric administration of same volumetric of normal saline at 0.2 ml/20 g body weight. Intragastric administration for once each day, and continuous administration for 14 days.
20 μl Blood was collected from orbital veins of each mouse of each group before Modeling and on 14th test day respectively, and dropped into anticoagulative tubes, then platelet count was detected by an automated blood analyzers.

Data set [3] is classed as in vivo, BALB/C mice. The note with it: 5 mg/(kg·d) intragastric. The protocol:
as §1, §2, §3
The weights of mice of each group are respectively measured before modeling, on 7th test day, and on 14th test day.

Another data set has as its system female mouse. The conditions noted are these: Zhao Guoqiang et al., 1984; cited from earlier work.
Data set [4] is described as follows: Organ index of rats suffering thrombopenia induced by carboplatin. Format: in vivo, Wistar rats. How it is done: (§4) 81 rats are prepared and randomly divided into eight groups: • blank control group, • high-dose group A (4 mg/kg, intraperitoneal injection, non modeling), • model group (40 mg/kg, tail vein injection), • interleukin-11 group (260 μg/kg, subcutaneous injection), • high dose group B (4 mg/kg, intraperitoneal injection, modeling), • high dose group (4 mg/kg, intraperitoneal injection), • middle dose group (1 mg/kg, intraperitoneal injection), and • low dose group (0.25 mg/kg, intraperitoneal injection),
(§5) Thereafter, all animals, except for those of blank group and high-dose group A, are individually injected with carboplatin (40 mg/kg) for modeling, and followed by successive administration for 15 days. During these 15 days, the rats of high-dose group A and high dose group B are stopped from administration, and taken blood from the tail on 5th day, 10th day and 15th day after the modeling respectively for detecting hematological indices. After 15th day of modeling, carboplatin (40 mg/kg) is injected again for a second modeling, and all the groups take successive administration according to the foregoing method, once a day for successive 10 days. Before each hematological indices detection, animals are weighed respectively. Taking the tails' blood of rats on 5th day after the second injection of carboplatin for detecting hematological indices, and taking the tails' blood of rats on 10th day after the second injection of carboplatin for detecting the indices of hematology, reticulocytes and coagulation; and weighing animals and killing them; and weighing liver, thymus, spleen and adrenal gland taken from the dead rats, and calculating out viscera indices; further taking out marrow for doing pathological examination.

Data set [5] can be described thus: Body weight of rats suffering thrombopenia induced by carboplatin. It is filed as in vivo, Wistar rats. The note with it: for body weight: 260 μg/kg s.c., carboplatin model. The protocol:
as §4
(§6) wherein, the Model group has 11 rats, and the other groups has 10 rats respectively. Before the experiment, the animals are asked to adapt the environment for 2 days, and then blood is taken from their tails for detecting hematological index.
(§7) After administration for 10 days, blood is taken from tails of rats from blank control group, high-dose group A, and positive drug group respectively for detecting hematological index.
as §5

Data set [6] relates to rats suffering thrombopenia induced by carboplatin. The data set is described as follows: Platelet count of rats suffering thrombopenia induced by multiple injections of carboplatin. It is filed as in vivo, Wistar rats. The conditions noted are these: 260 μg/kg s.c., carboplatin model. How it is done:
as §4, §6, §7, §5

Data set [7] relates to rats with thrombocytopenia caused by carboplatin. The experiment in a line: Platelet count of rats with thrombocytopenia caused by carboplatin, different prophylactic administration time. Format: in vivo, rat.
Where [8] appears, read: 260 μg/kg s.c., carboplatin model.
The mark [9] stands for this setting: 5th day after first injection of carboplatin.
[10] abbreviates: 5th day after second injection of carboplatin.
Setting [11] is: 10th day after first injection of carboplatin.
Setting [12] is: 10th day after second injection of carboplatin.
The mark [13] stands for this setting: 15th day after first injection of carboplatin.
Setting [14] is: prophylactic administration for 10 days.

`CC(=O)OCC(=O)[C@@]1(O)CC[C@H]2[C@@H]3CCC4=CC(=O)C=C[C@]4(C)[C@H]3C(=O)C[C@@]21C` [Prednisone acetate, Prednisone Acetate, reference compound]: in the data set on ITP model mice [1], the “Subcutaneous purpura, bleeding degree +” value was 6 number of mice; the “Subcutaneous purpura, bleeding degree ++” value is listed as 2 number of mice; the “Subcutaneous purpura, bleeding degree +++” value is reported as 0 number of mice; the “Subcutaneous purpura, bleeding degree −” value is 0 number of mice. The platelet count with ITP model mice [2] (Before Modeling) is on record as 756.9 ± 130.1 ×10^9/L. Besides, the platelet count with ITP model mice [2] (Day 14) was 579.0 ± 70.7 ×10^9/L. Further, the body weight in data set [3] (Day 0) is recorded as 19.8 ± 2.1 g. In data set [3] (Day 7), this molecule came in with a body weight of 19.5 ± 1.8 g. This molecule also yielded a body weight in data set [3] (Day 14) of 20.6 ± 1.7 g.
`N[C@H](CNC(=O)C(=O)O)C(=O)O` [β-N-oxalyl-D-α, β-diaminopropionic acid, reference compound]: the “effect on the hemostasis and increase of platelet count” value in the data set on female mouse is reported as “significant effect”.

B1: Interleukin-11: Recombinant human interleukin-11 for injection, sterile lyophilized preparation, Qilu Pharmaceutical; positive drug (protein, UniProt P20809 22-199, looked up)
Interleukin-11: PGPPPGPPRVSPDPRAELDSTVLLTRSLLADTRQLAAQLRDKFPADGDHNLDSLPTLAMSAGALGALQLPGVLTRLRADLLSYLRHVQWLRRAGGSSLKTLEPELGTLQARLDRLLRRLQLLMSRLALPQPPPDPPAPPLAPPSSAWGGIRAAHAILGGLHLTLDWAVRGLLLLKTRL
Consider B1, for which the “organ index, Adrenal gland” value in data set [4] (setting [8]) is on record as 0.04 ± 0.01 g/100 g body weight. For the same molecule, the “organ index, Liver” value in data set [4] (setting [8]) was found to be 4.10 ± 0.30 g/100 g body weight. Moreover, in data set [4] (setting [8]), the “organ index, Spleen” value is reported as 0.39 ± 0.05 g/100 g body weight. Further, the “organ index, Thymus gland” value in data set [4] (setting [8]) worked out at 0.14 ± 0.05 g/100 g body weight. The “index of livers, spleens, suprarenal glands compared with the blank control group” value in data set [4] (interleukin-11 group) is “obvious increases”. The body weight is 267.6 ± 41.79 g in data set [5] (setting [9]); 294.6 ± 47.61 g in data set [5] (setting [10]); 287.1 ± 41.57 g in data set [5] (setting [11]); 291.7 ± 52.46 g in data set [5] (setting [12]); 298.3 ± 44.22 g in data set [5] (setting [13]); 186.7 ± 9.63 g in data set [5] (before experiment). In addition, the body weight in data set [5] (setting [14]) was 268.8 ± 32.65 g. Also, the “body weight and state” value in data set [5] (280 μg/kg subcutaneous injection, beginning of the experiment) is given as “obvious body weight loss”. In addition, the platelet count in data set [6] (setting [9]) is on record as 564.0 ± 126.1 ×10^9/L; in data set [6] (setting [10]), 953.7 ± 265.8 ×10^9/L; in data set [6] (setting [11]), 234.6 ± 77.9 ×10^9/L; in data set [6] (setting [12]), 290.7 ± 180.9 ×10^9/L; in data set [6] (setting [13]), 1183.3 ± 92.5 ×10^9/L; in data set [6] (before experiment), 625.4 ± 124.92 ×10^9/L. Also, the platelet count is on record as 761.6 ± 226.76 ×10^9/L in data set [6] (setting [14]); 820.7 ± 155.13 ×10^9/L in data set [7] (prophylactic administration for 3 days, after prophylactic administration); 736.3 ± 175.56 ×10^9/L in data set [7] (prophylactic administration for 3 days, initial value); 88.5 ± 51.49 ×10^9/L in data set [7] (prophylactic administration for 3 days, injection of carboplatin for 10 days); 759.5 ± 145.34 ×10^9/L in data set [7] (prophylactic administration for 5 days, after prophylactic administration); 724.0 ± 178.87 ×10^9/L in data set [7] (prophylactic administration for 5 days, initial value). Further, the platelet count is recorded as 178.3 ± 57.08 ×10^9/L in data set [7] (prophylactic administration for 5 days, injection of carboplatin for 10 days); 860.5 ± 113.92 ×10^9/L in data set [7] (prophylactic administration for 7 days, after prophylactic administration); 732.3 ± 197.06 ×10^9/L in data set [7] (prophylactic administration for 7 days, initial value); 179.5 ± 26.76 ×10^9/L in data set [7] (prophylactic administration for 7 days, injection of carboplatin for 10 days). Also, the “platelet count compared with that of model group” value was “no significant difference” in data set [7] (prophylactic administration for 3 days); “increase the platelet count” in data set [7] (prophylactic administration for 5 days and 7 days).
